The text below walks through data of paper doi:10.1101/2020.10.12.336495 (bioRxiv, 2020).

This data set deals with the molecule itself. Briefly: cryo-EM structure.

B1: Saccharomyces cerevisiae vacuolar transient receptor potential yeast 1 (TRPY1) channel, full length (natural protein, UniProt Q12324 1-675, looked up)
chain: MVSANGDLHLPISNEQCMPENNGSLGFEAPTPRQILRVTLNLKYLIDKVVPIVYDPNDIVCDHSEILSPKVVKLAYEACGGNPKDKANKRKYQSVIIFSLLKVCEWYSILATMEVHNAKLYETRNLASQQLCKLLIEREETRDLQFLFMQLLLRRYVINENDEDQEPLNALELATDMHCTTVIGSSGFQRCLKWIWRGWIVQNGLDPTTFIKDDSLAEVSLISHFNPVRLKAPVYQNYLQMIFSFLFLGLYTLVVNGKDSERVQSFDLLESIFYVFNTGFILDELTKLYYIGYAHLSFWNLFNDTTYLIITFAMGFRAMSVTPLNAKYSSEDWDKISYRVLSCAAPFVWSRLLLYLESQRFIGIMLVILKHMMKESIVFFFLLFLIMIGFTQGFLGLDSADGKRDITGPILGNLTITVLGLGSFDVFEEFAPPYAAILYYGYYFIVSVILLNILIALYSTAYQKVIDNADDEYMALMSQKTLRYIRAPDEDVYVSPLNLIEVFMTPIFRILPPKRAKDLSYTVMTIVYSPFLLLISVKETREARRIKYNRMKRLNDDANEYDTPWDLTDGYLDDDDGLFSDNRNSGMRATQLKNSRSLKLQRTAEQEDVHFKVPKKWYKNVKKCSPSFEQYDNDDTEDDAGEDKDEVKELTKKVENLTAVITDLLEKLDIKDKKE
For B1, the stoichiometry N (commonly the number of molecules, sites or subunits per partner or assembly) came to 4.
